Kd and Selection yield (%) data for 4 substances are collected here from patent US20190300576A1.

As a reminder, the pKd is the Kd on a negative log10 scale, so that one unit is a factor of ten. Low readings indicate a high Kd, high ones a low Kd.

The target of experiment [1] is Trypsin from bovine pancreas (bovine) (UniProt P00760). Kind of experiment: Trypsin inhibition assay.
In experiment [2] the target is SUMO-C-CA (HIV-1). Description: BLI, peptide on streptavidin sensors, global fit. (Biolayer interferometry detects binding as a change in optical thickness at a sensor tip.)
For experiment [3], the target named is SUMO-C-CA (HIV-1). Kind of experiment: BLI, biotinylated peptide immobilized on streptavidin sensors, SUMO-C-CA in solution.
For experiment [4], the target named is SUMO-C-CA (HIV-1). Kind of experiment: BLI, C-terminally biotinylated peptide immobilized.
The target in experiment [5] is SUMO-C-CA (HIV-1). Kind of experiment: HPSEC affinity selection, 50*7.8mm BIO-SEC-3 column, peptide quantified by LC-MS in the protein fraction. (SEC sorts molecules by how far they enter the pores of the column.)

pKd: −log10 of the molar value.

Sequence of Trypsin from bovine pancreas (bovine) (P00760 24-246): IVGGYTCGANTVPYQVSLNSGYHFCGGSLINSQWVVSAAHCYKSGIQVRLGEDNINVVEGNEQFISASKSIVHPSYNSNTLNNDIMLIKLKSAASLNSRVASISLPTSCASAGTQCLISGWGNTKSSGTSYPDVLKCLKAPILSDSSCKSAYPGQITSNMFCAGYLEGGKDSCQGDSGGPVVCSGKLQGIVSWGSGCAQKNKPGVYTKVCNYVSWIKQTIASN

As to “EETI-II-diol (59) (from UniProt P12071 1-28) (peptide)”, the pKd in experiment [1] was 9.03. As to peptide NYAD (37a-M), the figures for the pKd with SUMO-C-CA (HIV-1) [2] and with SUMO-C-CA (HIV-1) [3] were 5.30 and 5.24, respectively. Turning to peptide 37a (biotinylated CAI), the pKd with SUMO-C-CA (HIV-1) [2] was 5.66; with SUMO-C-CA (HIV-1) [4], 5.64; with SUMO-C-CA (HIV-1) [3] it was 5.64. In the case of CAI (37) (peptide), the Selection yield (%) in the experiment with SUMO-C-CA (HIV-1) [5] worked out at 0.5%.
